Experimental data: patent US20210122824A1 (ADAGENE, published 2021)

T1: human B7-H3 expressed on HEK293F cells (human, UniProt Q5ZPR3 29-534)
T1 construct: whole, on cells
T1 sequence (looked up): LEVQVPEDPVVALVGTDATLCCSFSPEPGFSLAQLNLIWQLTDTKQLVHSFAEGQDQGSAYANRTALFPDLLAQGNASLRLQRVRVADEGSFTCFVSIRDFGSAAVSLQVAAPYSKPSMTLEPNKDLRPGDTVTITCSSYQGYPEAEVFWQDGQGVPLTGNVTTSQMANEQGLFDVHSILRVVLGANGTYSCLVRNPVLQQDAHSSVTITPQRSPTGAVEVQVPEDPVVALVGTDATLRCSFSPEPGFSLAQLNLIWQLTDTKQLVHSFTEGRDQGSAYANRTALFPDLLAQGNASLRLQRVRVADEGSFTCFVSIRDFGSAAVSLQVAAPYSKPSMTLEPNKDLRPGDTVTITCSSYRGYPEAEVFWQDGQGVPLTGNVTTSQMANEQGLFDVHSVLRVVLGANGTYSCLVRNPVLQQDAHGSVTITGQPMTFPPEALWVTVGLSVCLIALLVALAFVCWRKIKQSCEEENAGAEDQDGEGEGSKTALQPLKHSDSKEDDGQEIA

T2: human LAG3 expressed on HEK293F cells (human, UniProt P18627 23-525)
T2 construct: whole, on cells
T2 sequence (looked up): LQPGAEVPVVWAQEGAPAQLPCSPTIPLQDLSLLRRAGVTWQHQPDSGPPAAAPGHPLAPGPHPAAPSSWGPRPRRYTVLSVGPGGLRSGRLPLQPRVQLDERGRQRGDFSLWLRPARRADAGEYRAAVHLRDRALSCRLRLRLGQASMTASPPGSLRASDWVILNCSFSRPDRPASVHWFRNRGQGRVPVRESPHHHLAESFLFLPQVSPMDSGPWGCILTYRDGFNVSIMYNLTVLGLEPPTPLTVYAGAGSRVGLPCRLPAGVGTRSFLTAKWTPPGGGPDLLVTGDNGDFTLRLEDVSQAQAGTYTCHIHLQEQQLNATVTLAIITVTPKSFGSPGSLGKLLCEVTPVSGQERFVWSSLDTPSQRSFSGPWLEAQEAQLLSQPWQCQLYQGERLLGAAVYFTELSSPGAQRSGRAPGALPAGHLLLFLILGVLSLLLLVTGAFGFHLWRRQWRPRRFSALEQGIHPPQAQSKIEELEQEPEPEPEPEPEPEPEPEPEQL


What was measured:
[1] = biological target: T3, rhesus PD-L1 expressed on HEK293F cells (rhesus, UniProt F6VEW6 19-290); assay: flow cytometry, HEK293F cells transiently expressing the target, 100 nM antibody, PE anti-human Fc; Mean (PE-A against FITC-A, GFP surrogate)
T3 construct: whole, on cells

[2] = biological target: T4, human PD1 expressed on HEK293F cells (human, UniProt Q15116 25-288); assay: as above
T4 construct: whole, on cells
T4 sequence (Q15116 25-288): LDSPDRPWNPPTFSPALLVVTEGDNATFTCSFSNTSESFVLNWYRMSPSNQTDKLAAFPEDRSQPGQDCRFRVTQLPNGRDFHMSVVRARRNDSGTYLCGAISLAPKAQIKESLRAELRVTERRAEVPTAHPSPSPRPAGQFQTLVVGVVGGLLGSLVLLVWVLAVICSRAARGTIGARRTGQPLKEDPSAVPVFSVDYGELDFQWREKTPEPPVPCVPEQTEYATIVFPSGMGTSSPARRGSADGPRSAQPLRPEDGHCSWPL

[3] = biological target: T5, human PD-L1-Fc fusion protein (Sino Biological Cat #10084-H02H) (human, UniProt Q9NZQ7 19-239); assay: competition ELISA, PD1-Fc (1 ug/mL) coated, biotinylated PD-L1-Fc mixed with antibody, HRP neutravidin; blocked ligand PD1-Fc
T5 construct: bought; not shown: Fc part of the bought fusion
T5 sequence (Q9NZQ7 19-239 limits assumed): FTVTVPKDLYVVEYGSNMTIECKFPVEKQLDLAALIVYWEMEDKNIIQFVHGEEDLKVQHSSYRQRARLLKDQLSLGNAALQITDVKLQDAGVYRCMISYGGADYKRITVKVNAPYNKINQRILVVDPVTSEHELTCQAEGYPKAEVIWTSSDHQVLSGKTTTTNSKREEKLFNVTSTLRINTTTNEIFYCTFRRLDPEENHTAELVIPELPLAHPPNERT

[4] = biological target: T6, human PD-L1 expressed on cell surface (human, UniProt Q9NZQ7 19-290); assay: blocking by flow cytometry, HEK293F cells expressing full-length human PD-L1, 100 nM antibody then 100 nM biotinylated PD1-His (blocked ligand), Alexa fluor 633 streptavidin; isotype control panel Q2 35.1%
T6 construct: whole, on cells; also called full-length human PD-L1; cell surface PD-L1
T6 sequence (Q9NZQ7 19-290): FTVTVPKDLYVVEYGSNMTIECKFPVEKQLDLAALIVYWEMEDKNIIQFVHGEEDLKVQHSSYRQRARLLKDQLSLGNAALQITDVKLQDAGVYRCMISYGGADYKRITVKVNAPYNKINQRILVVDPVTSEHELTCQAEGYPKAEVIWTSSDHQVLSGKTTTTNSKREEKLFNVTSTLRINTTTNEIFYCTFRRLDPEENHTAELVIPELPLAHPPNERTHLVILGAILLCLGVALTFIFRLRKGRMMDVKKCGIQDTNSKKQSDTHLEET

[5] = biological target: T7, human CTLA4 expressed on HEK293F cells (human, UniProt P16410 36-223); assay: flow cytometry on transfected HEK293F cells
T7 construct: whole, on cells
T7 sequence (P16410 36-223): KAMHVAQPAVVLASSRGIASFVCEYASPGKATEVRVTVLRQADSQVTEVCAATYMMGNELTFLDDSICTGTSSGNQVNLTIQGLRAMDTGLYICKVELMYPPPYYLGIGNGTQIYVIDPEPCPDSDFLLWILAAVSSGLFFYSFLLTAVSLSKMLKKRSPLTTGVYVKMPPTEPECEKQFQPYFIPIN

[6] = biological target: T4, human PD1 expressed on HEK293F cells; assay: flow cytometry on transfected HEK293F cells
[7] = biological target: T1, human B7-H3 expressed on HEK293F cells; assay: flow cytometry on transfected HEK293F cells
[8] = biological target: T2, human LAG3 expressed on HEK293F cells; assay: flow cytometry on transfected HEK293F cells
[9] = biological target: T8, human TIM3 expressed on HEK293F cells (human, UniProt Q8TDQ0 22-301); assay: flow cytometry on transfected HEK293F cells
T8 construct: whole, on cells

[10] = biological target: T7, human CTLA4 expressed on HEK293F cells; assay: flow cytometry, HEK293F cells transiently expressing the target, 100 nM antibody, PE anti-human Fc; Mean (PE-A against FITC-A, GFP surrogate)
[11] = biological target: T1, human B7-H3 expressed on HEK293F cells; assay: as above
[12] = biological target: T2, human LAG3 expressed on HEK293F cells; assay: as above
[13] = biological target: T8, human TIM3 expressed on HEK293F cells; assay: as above
[14] = biological target: T9, mouse PD-L1 expressed on HEK293F cells (mouse, UniProt Q9EP73 19-290); assay: as above
T9 construct: whole, on cells
T9 sequence (Q9EP73 19-290): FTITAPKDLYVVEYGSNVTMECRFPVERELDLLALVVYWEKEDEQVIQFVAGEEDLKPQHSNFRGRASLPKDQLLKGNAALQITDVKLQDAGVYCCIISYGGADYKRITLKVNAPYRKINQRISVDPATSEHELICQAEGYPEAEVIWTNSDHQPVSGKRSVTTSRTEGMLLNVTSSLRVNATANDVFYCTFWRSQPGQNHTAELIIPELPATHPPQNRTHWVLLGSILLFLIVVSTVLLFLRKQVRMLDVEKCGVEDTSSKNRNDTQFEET

[15] = biological target: T6, human PD-L1 expressed on cell surface; assay: as above
[16] = biological target: mouse PD-L1 (construct not stated) (mouse, UniProt Q9EP73 19-238, limits assumed); assay: SPR (Biacore)
mouse PD-L1 (construct not stated), sequence (Q9EP73 19-238 limits assumed): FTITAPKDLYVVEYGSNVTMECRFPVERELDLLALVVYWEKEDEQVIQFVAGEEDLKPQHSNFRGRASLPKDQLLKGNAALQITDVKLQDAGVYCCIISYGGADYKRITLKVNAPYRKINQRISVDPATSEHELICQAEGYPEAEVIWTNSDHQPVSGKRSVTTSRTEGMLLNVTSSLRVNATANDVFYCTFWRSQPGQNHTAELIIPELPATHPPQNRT

[17] = biological target: T3, rhesus PD-L1 expressed on HEK293F cells; assay: flow cytometry on transfected HEK293F cells, 100 nM antibody
[18] = biological target: T10, human PD-L1-His6 (Sino Biological #10084-H08H) (human, UniProt Q9NZQ7 19-239); assay: SPR (Biacore T200), antibody captured by anti-human Fc, PD-L1-His6 in solution
T10 construct: bought; not shown: His6 tag
T10 sequence (Q9NZQ7 19-239 limits assumed): as the sequence (Q9NZQ7 19-239 limits assumed) above

Row | Mean [1] | Mean [2] | IC50 (read off the curve) [3] [nM] | Q2 (percent of cells positive for GFP and for the APC signal of PD1-His, antibody present) [4] [%] | binding result [5] | binding result [6] | binding result [7] | binding result [8] | binding result [9] | Mean [10] | Mean [11] | Mean [12] | Mean [13] | Mean [14] | Mean [15] | binding result [16] | binding result [17] | Kd [18] [nM] | koff [18] [s⁻¹] | kon [18] [M⁻¹ s⁻¹] | Binder
1 | 164000 | 3710 | ~6 | 1.53 | no binding (tested: 100 nM) | no binding (tested: 100 nM) | no binding (tested: 100 nM) | no binding (tested: 100 nM) | no binding (tested: 100 nM) | 4570 | 3780 | 4630 | 4660 | – | – | – | – | – | – | – | TY21420 (antibody, V domains shown, IgG1 (wild type) made from Fab B15016, from HEK293F cells) VH: EVQLVESGGGLVQPGGSLRLSCAASGYSISSGYYWGWIRQAPGKGLEWIGIIYPSGGGTNYAQKFQGRVTISRDNSKNTLYLQLNSLRAEDTAVYYCARGGGLGFDYWGQGTLVTVSS VL: DIQLTQSPSSLSASVGDRVTITCRASQTIPSFLNWYQQKPGKAPKLLIYAASSLQSGVPSRFSGSGSGTDFTLTISSLQPEDFATYYCQHYTSWPRQFTFGQGTKVEIKR
2 | – | 2570 | ~6 | 0.29 | no binding (tested: 100 nM) | no binding (tested: 100 nM) | no binding (tested: 100 nM) | no binding (tested: 100 nM) | no binding (tested: 100 nM) | 3460 | – | 2830 | 2480 | 2470 | 227000 | no binding | binds | 0.399 | 0.000179 | 448000 | TY21418 (antibody, V domains shown, IgG1 (wild type) made from Fab B13002, from HEK293F cells) VH: EVQLVESGGGLVQPGGSLRLSCAASGYTFSNYGIHWVRQAPGKGLEWIGWIYPSGGGTKYAQKFQGRVTISRDNSKNTLYLQLNSLRAEDTAVYYCAREGGGYGYALDYWGQGTLVTVSS VL: DIQLTQSPSSLSASVGDRVTITCRASQGVSSYLAWYQQKPGKAPKLLIYDASNLETGVPSRFSGSGSGTDFTLTISSLQPEDFATYYCQQYDAWPYTFGQGTKVEIKR
3 | 201000 | 3110 | ~6 | 0.58 | no binding (tested: 100 nM) | no binding (tested: 100 nM) | no binding (tested: 100 nM) | no binding (tested: 100 nM) | no binding (tested: 100 nM) | 2330 | 2380 | 3390 | 2310 | 2500 | 219000 | no binding | – | 0.465 | 0.000143 | 307000 | TY21419 (antibody, V domains shown, IgG1 (wild type) made from Fab B13004, from HEK293F cells) VH: EVQLVESGGGLVQPGGSLRLSCAASGYTFSNYGIHWVRQAPGKGLEWIGWIYPSGGGTKYAQKFQGRVTISRDNSKNTLYLQLNSLRAEDTAVYYCAREGGGYGYALDYWGQGTLVTVSS VL: DIQLTQSPSSLSASVGDRVTITCRASQGISPWLAWYQQKPGKAPKLLIYDASNRATGIPSRFSGSGSGTDFTLTISSLQPEDFATYYCQQYDSWPYTFGQGTKVEIKR
